Substitutions are numbered along the chain they refer to. Ends that are not written are not given here.
T1: corticotropin releasing factor 2 receptor
T1 sequence (Q13324 whole entry, species assumed, looked up): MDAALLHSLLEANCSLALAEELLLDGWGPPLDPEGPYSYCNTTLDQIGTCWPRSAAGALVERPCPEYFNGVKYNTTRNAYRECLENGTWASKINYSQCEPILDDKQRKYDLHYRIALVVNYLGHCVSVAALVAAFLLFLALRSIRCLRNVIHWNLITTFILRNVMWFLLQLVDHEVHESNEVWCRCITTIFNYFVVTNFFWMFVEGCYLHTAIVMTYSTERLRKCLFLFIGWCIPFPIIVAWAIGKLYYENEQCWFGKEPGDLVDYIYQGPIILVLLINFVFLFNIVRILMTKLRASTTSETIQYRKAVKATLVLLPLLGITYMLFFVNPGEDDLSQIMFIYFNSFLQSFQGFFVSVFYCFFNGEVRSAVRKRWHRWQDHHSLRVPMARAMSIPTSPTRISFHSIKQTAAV

T2: corticotropin releasing factor 2 receptor
T2 sequence (Q13324 whole entry, species assumed, looked up): T1 sequence (Q13324 whole entry, species assumed, looked up)

B1: human urocortin II fragment (peptide)
peptide: IVLSLDVPIGLLQILLEQARARAAREQATTNARILARV
modifications: ends and bridges not checked
B2: human corticotropin releasing factor fragment (peptide)
peptide: SEEPPISLDLTFHLLREVLEMARAEQLAQQAHSNRKLMEII
modifications: ends and bridges not checked
B3: human urocortin III fragment (peptide)
peptide: TKFTLSLDVPTNIMNLLFNIAKAKNLRAQAAANAHLMAQI
modifications: ends and bridges not checked
B4: ovine corticotropin releasing factor fragment (peptide)
peptide: SQEPPISLDLTFHLLREVLEMTKADQLAQQAHSNRKLLDIA
modifications: ends and bridges not checked
B5: human urocortin I fragment (peptide)
peptide: DNPSLSIDLTFHLLRTLLELARTQSQRERAEQNRIIFDSV
modifications: ends and bridges not checked
B6: SEQ ID NO 248 (peptide)
peptide: ZGPPISIDLPLQLLRKMIEIEKQEKEKQQAANNALLLDTI
modifications: C-terminal amide
B7: SEQ ID NO 249 (peptide)
peptide: B6 peptide with R15E, D38A
modifications: C-terminal amide
B8: SEQ ID NO 251 (peptide)
peptide: B6 peptide with L11F
modifications: C-terminal amide
B9: SEQ ID NO 252 (peptide)
peptide: B6 peptide with L11T, Q12Y, K16I, M17L, A34R
modifications: C-terminal amide
B10: SEQ ID NO 255 (peptide)
peptide: B6 peptide with L11F, K16I, M17L, A34R
modifications: C-terminal amide
B11: SEQ ID NO 254 (peptide)
peptide: B6 peptide with L9V, L11I, Q12G, A34R
modifications: C-terminal amide
B12: SEQ ID NO 250 (peptide)
peptide: B6 peptide with L11F, A34R, D38A
modifications: C-terminal amide
B13: SEQ ID NO 253 (peptide)
peptide: B6 peptide with L9V, L11T, Q12Y, A34R
modifications: C-terminal amide

target: T1, corticotropin releasing factor 2 …; assay: cell-based or functional assay

Row | Binder | CRF2R EC50 [nM] | CRF2R Emax % [%]
1 | B1 | 3.64 | 98
2 | B2 | 49.2 | 100
3 | B3 | > 100 | 60
4 | B4 | > 100 | 33
5 | B5 | 3.52 | 100

target: corticotropin releasing factor 1 receptor; assay: cell-based or functional assay

Row | Binder | CRF1R EC50 [nM] | CRF1R Emax % [%]
6 | B1 | > 100 | 9
7 | B2 | 19.9 | 87
8 | B3 | > 1000 | 10.2
9 | B4 | 27.4 | 98
10 | B5 | 9 | 100

target: T2, corticotropin releasing factor 2 …; assay: cell-based or functional assay

Row | Binder | CRF2R EC50 [nM] | CRF2R Emax % [%]
11 | B6 | 19.6 | 98
12 | B7 | 12.2 | 92
13 | B8 | 11.8 | 100
14 | B9 | 22.3 | 100
15 | B10 | 7 | 100
16 | B11 | 100 | 36
17 | B12 | 19.7 | 100
18 | B13 | 41.8 | 86

target: corticotropin releasing factor 1 receptor; assay: cell-based or functional assay; remark: another data set of the same source

Row | Binder | CRF1R EC50 [nM] | CRF1R Emax % [%]
19 | B6 | 1000 | 32
20 | B7 | 1000 | 50
21 | B8 | 926 | 80
22 | B9 | 226 | 100
23 | B10 | 33.3 | 84
24 | B11 | 708 | 6
25 | B12 | 138 | 99
26 | B13 | 1000 | 42

Source: patent US20030148956A1 (PROCTER AND GAMBLE, published 2003)
